The record followed here is patent US20200407750A1.

Assay [1] has as its target AAV9.RGNRQ capsid mutant (adeno-associated virus 9 (AAV9), mutant). Nature of the assay: capsid capture ELISA, as told in the discussion. A general note: In an ELISA, binding on a coated surface is turned into a signal by an enzyme label.
Assay [2] addresses AAV9.WT capsid (AAV9 vector) (adeno-associated virus 9 (AAV9)). Nature of the assay: cell-based or functional assay.
For assay [3], the target named is AAV9.SSNTA capsid mutant (adeno-associated virus 9 (AAV9), mutant). Nature of the assay: cell-based or functional assay.
Assay [4] deals with AAV9.QQNAA capsid mutant (adeno-associated virus 9 (AAV9), mutant). The experiment in a line: cell-based or functional assay.
For assay [5], the target named is AAV9.SAQAN capsid mutant (adeno-associated virus 9 (AAV9), mutant). Nature of the assay: cell-based or functional assay.
Assay [6] has as its target AAV9.AAQAA capsid mutant (adeno-associated virus 9 (AAV9), mutant). Nature of the assay: cell-based or functional assay.
Assay [7] concerns the target AAV9.TQAAA capsid mutant (adeno-associated virus 9 (AAV9), mutant). The experiment in a line: cell-based or functional assay.
Assay [8] addresses AAV9.SAQAA capsid mutant (adeno-associated virus 9 (AAV9), mutant). Nature of the assay: cell-based or functional assay.
Assay [9] deals with AAV9.RGHRE capsid mutant (adeno-associated virus 9 (AAV9), mutant). Nature of the assay: cell-based or functional assay.
The target of assay [10] is AAV9.RGNRQ capsid mutant (adeno-associated virus 9 (AAV9), mutant). Nature of the assay: cell-based or functional assay.
Assay [11] addresses AAV9.WT capsid (AAV9 vector) (adeno-associated virus 9 (AAV9)). Nature of the assay: capsid capture ELISA, EC50 from dose-response fit.
The target of assay [12] is AAV9.SSNTA capsid mutant (adeno-associated virus 9 (AAV9), mutant). The experiment in a line: capsid capture ELISA, EC50 from dose-response fit.
Assay [13] addresses AAV9.QQNAA capsid mutant (adeno-associated virus 9 (AAV9), mutant). The experiment in a line: capsid capture ELISA, EC50 from dose-response fit.
For assay [14], the target named is AAV9.SAQAN capsid mutant (adeno-associated virus 9 (AAV9), mutant). Nature of the assay: capsid capture ELISA, EC50 from dose-response fit.
For assay [15], the target named is AAV9.AAQAA capsid mutant (adeno-associated virus 9 (AAV9), mutant). The experiment in a line: capsid capture ELISA, EC50 from dose-response fit.
Assay [16] addresses AAV9.TQAAA capsid mutant (adeno-associated virus 9 (AAV9), mutant). Nature of the assay: capsid capture ELISA, EC50 from dose-response fit.
Assay [17] concerns the target AAV9.SAQAA capsid mutant (adeno-associated virus 9 (AAV9), mutant). Nature of the assay: capsid capture ELISA, EC50 from dose-response fit.
For assay [18], the target named is AAV9.RGHRE capsid mutant (adeno-associated virus 9 (AAV9), mutant). The experiment in a line: capsid capture ELISA, EC50 from dose-response fit.
Assay [19] has as its target AAV9.RGNRQ capsid mutant (adeno-associated virus 9 (AAV9), mutant). Nature of the assay: capsid capture ELISA, EC50 from dose-response fit.

Consider PAV9.1 monoclonal antibody, for which, in [1], the fold reduction in binding (relative to WT.AAV9) was found to be 50 fold. Besides, the Fold reduction NAb titer in [2] stood at 1 fold; in assay [3], 512 fold; in [4], 128 fold; in assay [5], 16 fold; in assay [6], 16 fold; in [7], 16 fold. In addition, the Fold reduction NAb titer is 4 fold in assay [8], more than 2048 fold in assay [9] and 8 fold in [10]. The effective NAb titer (NAb assay, transduction of HEK293 cells) (reciprocal dilution) in [2] was found to be 164000. In [9], the NAb titer of PAV9.1 (reciprocal dilution) is less than 80. Also, the Fold increase EC50 (relative to AAV9.WT) is 1 fold in [11]; 264 fold in assay [12]; 124 fold in [13]; 40 fold in assay [14]; 45 fold in [15]; 15 fold in assay [16]. Further, the Fold increase EC50 (relative to AAV9.WT) in assay [17] stood at 20 fold; in assay [18] it was 294 fold; in assay [19], 96 fold.
